Source: article doi:10.1101/2025.03.06.641827 (bioRxiv, 2025)
Positions count from the first letter of the chain named. Names may count otherwise.

Tests used:
[1] = target: the molecule itself; assay: SEC
[2] = target: the molecule itself; assay: crystal structure
[3] = target: the molecule itself; assay: crystal structure; remark: listed apart in the source

B1: Staphylococcus aureus IlvA regulatory domain (residues 336-422) (domain or fragment, UniProt Q2FF63 336-422, looked up)
chain: EMKHYFILNFPQRPGALREFVNDVLGPQDDITKFEYLKKSSQNTGTVIIGIQLKDHDDLIQLKQRVNHFDPSNIYINENKMLYSLLI
In the case of B1, the “stoichiometry N” value [1] is reported as 4.

B2: Escherichia coli threonine dehydratase (IlvA), full length, His-tagged (enzyme, UniProt P04968 1-514, looked up)
chain: MADSQPLSGAPEGAEYLRAVLRAPVYEAAQVTPLQKMEKLSSRLDNVILVKREDRQPVHSFKLRGAYAMMAGLTEEQKAHGVITASAGNHAQGVAFSSARLGVKALIVMPTATADIKVDAVRGFGGEVLLHGANFDEAKAKAIELSQQQGFTWVPPFDHPMVIAGQGTLALELLQQDAHLDRVFVPVGGGGLAAGVAVLIKQLMPQIKVIAVEAEDSACLKAALDAGHPVDLPRVGLFAEGVAVKRIGDETFRLCQEYLDDIITVDSDAICAAMKDLFEDVRAVAEPSGALALAGMKKYIALHNIRGERLAHILSGANVNFHGLRYVSERCELGEQREALLAVTIPEEKGSFLKFCQLLGGRSVTEFNYRFADAKNACIFVGVRLSRGLEERKEILQMLNDGGYSVVDLSDDEMAKLHVRYMVGGRPSHPLQERLYSFEFPESPGALLRFLNTLGTYWNISLFHYRSHGTDYGRVLAAFELGDHEPDFETRLNELGYDCHDETNNPAFRFFLAG
modifications: PLP covalently bound to Lys62
In the case of B2, the “stoichiometry N” value [2] is reported as 4.

B3: Escherichia coli IlvA regulatory domain (amino acids 335-514) (domain or fragment, UniProt P04968 335-514, looked up)
chain: EQREALLAVTIPEEKGSFLKFCQLLGGRSVTEFNYRFADAKNACIFVGVRLSRGLEERKEILQMLNDGGYSVVDLSDDEMAKLHVRYMVGGRPSHPLQERLYSFEFPESPGALLRFLNTLGTYWNISLFHYRSHGTDYGRVLAAFELGDHEPDFETRLNELGYDCHDETNNPAFRFFLAG
In the case of B3, the “stoichiometry N” value [1] is reported as 2.

B4: Escherichia coli IlvA regulatory domain (335-514) F352A mutant (domain or fragment, UniProt P04968 335-514, looked up)
chain: B3 chain with F18A
For B4, the “stoichiometry N” value [3] was 2.

B5: Staphylococcus aureus threonine dehydratase (IlvA), full length (residues 1-422) (enzyme, UniProt Q2FF63 1-422, looked up)
chain: MTVKTTVSTKDIDEAFLRLKDIVKETPLQLDHYLSQKYDCKVYLKREDLQWVRSFKLRGAYNAISVLSDEAKSKGITCASAGNHAQGVAYTAKKLNLNAVIFMPVTTPLQKVNQVKFFGNSNVEVVLTGDTFDHCLAEALTYTSEHQMNFIDPFNNVHTISGQGTLAKEMLEQAKSDNVNFDYLFAAIGGGGLISGISTYFKTYSPTTKIIGVEPSGASSMYESVVVNNQVVTLPNIDKFVDGASVARVGDITFEIAKENVDDYVQVDEGAVCSTILDMYSKQAIVAEPAGALSVSALENYKDHIKGKTVVCVISGGNNDINRMKEIEERSLLYEEMKHYFILNFPQRPGALREFVNDVLGPQDDITKFEYLKKSSQNTGTVIIGIQLKDHDDLIQLKQRVNHFDPSNIYINENKMLYSLLI
For B5, the “stoichiometry N” value [1] was 8.
